From patent US20140178561

Tests used:
Assay in all cases: cell_activity
Settings in all cases: pair value
[1] = system: VInv_T03 TALE-nuclease right monomer (synthetic construct)
[2] = system: VInv_T02 TALE-nuclease right monomer (synthetic construct)
[3] = system: VInv_T01 TALE-nuclease right monomer (synthetic construct)
[4] = system: VInv_T03 TALE-nuclease left monomer (synthetic construct)
[5] = system: VInv_T01 TALE-nuclease left monomer (synthetic construct)
[6] = system: VInv_T02 TALE-nuclease left monomer (synthetic construct)
[7] = S. tuberosum protoplasts, text p49 gives range up to 9.5%
[8] = yeast beta-galactosidase assay 37 C, 0.82 at 30 C
[9] = S. tuberosum protoplasts, endogenous locus
[10] = yeast beta-galactosidase assay 37 C, 0.89 at 30 C
[11] = yeast beta-galactosidase assay 37 C, 0.95 at 30 C

CCGGACTTGCAGAGTAA (double strand) [VInv_T3 right half-site]
activity [1, 7]: 9.9 % NHEJ
activity (relative to I-SceI) [1, 8]: 0.96

CTTCTTTCCGATCCTCA (double strand) [VInv_T2 right half-site]
activity [2, 9]: 9.5 % NHEJ
activity (relative to I-SceI) [2, 10]: 0.92

GAAGTCCCTTAAAATCA (double strand) [VInv_T1 right half-site]
activity [3, 9]: 3.6 % NHEJ
activity (relative to I-SceI) [3, 11]: 0.94

TAGCCTTCTTTCCGATC (double strand) [VInv_T3 left half-site]
activity [4, 7]: 9.9 % NHEJ
activity (relative to I-SceI) [4, 8]: 0.96

TTCCTCCCGGATCAACC (double strand) [VInv_T1 left half-site]
activity [5, 9]: 3.6 % NHEJ
activity (relative to I-SceI) [5, 11]: 0.94

TTCCTCTCCTCTTTCCT (double strand) [VInv_T2 left half-site]
activity [6, 9]: 9.5 % NHEJ
activity (relative to I-SceI) [6, 10]: 0.92
